The assay deals with T1, LRP6E3E4 (UniProt O75581 631-1246).
T1 chain: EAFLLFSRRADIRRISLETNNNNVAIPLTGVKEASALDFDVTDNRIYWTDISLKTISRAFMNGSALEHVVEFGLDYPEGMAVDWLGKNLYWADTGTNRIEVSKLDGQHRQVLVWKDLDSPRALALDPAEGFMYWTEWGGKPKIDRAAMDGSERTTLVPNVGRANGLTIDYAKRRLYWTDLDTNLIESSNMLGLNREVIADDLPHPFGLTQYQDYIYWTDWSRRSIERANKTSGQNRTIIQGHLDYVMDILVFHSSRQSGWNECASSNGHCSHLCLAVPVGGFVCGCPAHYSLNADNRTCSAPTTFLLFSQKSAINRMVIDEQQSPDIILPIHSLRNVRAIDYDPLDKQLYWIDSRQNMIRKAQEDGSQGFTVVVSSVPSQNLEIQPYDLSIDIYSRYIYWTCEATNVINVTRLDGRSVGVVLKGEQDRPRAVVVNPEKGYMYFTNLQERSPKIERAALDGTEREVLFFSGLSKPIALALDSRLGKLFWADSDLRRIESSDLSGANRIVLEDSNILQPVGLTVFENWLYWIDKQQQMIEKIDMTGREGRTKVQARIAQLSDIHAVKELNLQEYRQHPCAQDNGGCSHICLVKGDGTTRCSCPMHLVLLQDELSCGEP
Nature of the assay: BLI (Octet).

B1: L2:5:αGFP:Fc (bispecific antibody)
chain: EVQLVESGGGLVQPGGSLRLSCAASGFTFTSYYISWVRQAPGKGLEWVAEISPYSGSTYYADSVKGRFTISADTSKNTAYLQMNSLRAEDTAVYYCALRARPPIRLHPRGSVMDYWGQGTLVTVSSGSAASGSSGGSSSGADIQMTQSPSSLSASVGDRVTITCRASQDVSTAVAWYQQKPGKAPKLLIYSASFLYSGVPSRFSGSGSGTDFTLTISSLQPEDFATYYCQQSYTTPPTFGQGTKVEIKGSGSGQVQLVESGGGLVQPGGSLRLSCAASGFTFSRYGMHWVRQAPGKGLEWVSGISSIGSNTYYADSVKGRFTISRDNSKNTLYLQMNSLRAEDTAVYYCARWYKTYIDVWGQGTLVTVSSGGGGSGGGGSGGGGSDIELTQPPSVSVAPGQTARISCSGDNLGKKYVYWYQQKPGQAPVLVIYGDDERPSGIPERFSGSNSGNTATLTISGTQAEDEADYYCASYDSSHILIVFGGGTKLTVLGSGSGDKTHTCPPCPAPEAAGGPSVFLFPPKPKDTLMISRTPEVTCVVVDVSHEDPEVKFNWYVDGVEVHNAKTKPREEQYNSTYRVVSVLTVLHQDWLNGKEYKCKVSNKALGAPIEKTISKAKGQPREPQVYTLPPSREEMTKNQVSLTCLVKGFYPSDIAVEWESNGQPENNYKTTPPVLDSDGSFFLYSKLTVDKSRWQQGNVFSCSVMHEALHNHYTQKSLSLSPGK
The molecule B1 had a Kd of 0.5 nM.

B2: αGFP:5:L2:Fc (bispecific antibody)
chain: QVQLVESGGGLVQPGGSLRLSCAASGFTFSRYGMHWVRQAPGKGLEWVSGISSIGSNTYYADSVKGRFTISRDNSKNTLYLQMNSLRAEDTAVYYCARWYKTYIDVWGQGTLVTVSSGGGGSGGGGSGGGGSDIELTQPPSVSVAPGQTARISCSGDNLGKKYVYWYQQKPGQAPVLVIYGDDERPSGIPERFSGSNSGNTATLTISGTQAEDEADYYCASYDSSHILIVFGGGTKLTVLGSGSGEVQLVESGGGLVQPGGSLRLSCAASGFTFTSYYISWVRQAPGKGLEWVAEISPYSGSTYYADSVKGRFTISADTSKNTAYLQMNSLRAEDTAVYYCALRARPPIRLHPRGSVMDYWGQGTLVTVSSGSAASGSSGGSSSGADIQMTQSPSSLSASVGDRVTITCRASQDVSTAVAWYQQKPGKAPKLLIYSASFLYSGVPSRFSGSGSGTDFTLTISSLQPEDFATYYCQQSYTTPPTFGQGTKVEIKGSGSGDKTHTCPPCPAPEAAGGPSVFLFPPKPKDTLMISRTPEVTCVVVDVSHEDPEVKFNWYVDGVEVHNAKTKPREEQYNSTYRVVSVLTVLHQDWLNGKEYKCKVSNKALGAPIEKTISKAKGQPREPQVYTLPPSREEMTKNQVSLTCLVKGFYPSDIAVEWESNGQPENNYKTTPPVLDSDGSFFLYSKLTVDKSRWQQGNVFSCSVMHEALHNHYTQKSLSLSPGK
Consider B2, for which the Kd worked out at 0.8 nM. This Kd lies about 1.6-fold higher than the previous one.

Source of the values: patent US20210292422A1 (published 2021).
